One block for each substance: values may come before it.
Key:
[1] = biological target: Mic60sol (Chaetomium thermophilum Mic60, residues 208–691) (Chaetomium thermophilum); assay: ITC; about 450 μM Mic19 construct in the syringe titrated into about 40 μM Mic60 construct in the cell; 10 °C; 20 mM HEPES/NaOH pH 7.5, 150 mM NaCl; untagged proteins
[2] = biological target: full-length Mic19 (Chaetomium thermophilum) (Chaetomium thermophilum); assay: SEC; gel filtration of purified Mic19 and its C132S/C143S mutant; the dimers were sensitive to reducing agents in SDS–PAGE
[3] = biological target: Mic60solΔMitoΔLBS2 (Chaetomium thermophilum Mic60, residues 208–582) (Chaetomium thermophilum); assay: native gel or EMSA; blue native (BN)-PAGE of purified Mic60 constructs
[4] = biological target: Mic60sol (Chaetomium thermophilum Mic60, residues 208–691) (Chaetomium thermophilum); assay: as above
[5] = biological target: Mic60sol (Chaetomium thermophilum Mic60, residues 208–691) (Chaetomium thermophilum); assay: AUC; sedimentation velocity (40,000 r.p.m., 3.5 h) and sedimentation equilibrium (9,000 r.p.m.); 20 mM HEPES/NaOH pH 7.3, 150 mM NaCl, 7 °C; 0.02–2 mg ml^-1 Mic60sol
[6] = biological target: Mic60solΔMito (Chaetomium thermophilum Mic60, residues 208–608) (Chaetomium thermophilum); assay: native gel or EMSA; blue native (BN)-PAGE of purified Mic60 constructs

Substance: full-length Mic19 (Chaetomium thermophilum) (natural protein)
Kd [1]: 170 nM
stoichiometry N [1]: 0.73
percent dimers [2]: 30%
stoichiometry N [2]: 2

Substance: C132S/C143S Mic19 mutant (Chaetomium thermophilum) (natural protein)
Kd [1]: 3500 nM
stoichiometry N [1]: 1

Substance: Mic60solΔMito (Chaetomium thermophilum Mic60, residues 208–608) (domain or fragment)
stoichiometry N [6]: 2

Results, then the substance that gave them:

stoichiometry N [3]: 2
Substance: Mic60solΔMitoΔLBS2 (Chaetomium thermophilum Mic60, residues 208–582) (domain or fragment)

stoichiometry N [4]: 2
stoichiometry N [5]: 2
Substance: Mic60sol (Chaetomium thermophilum Mic60, residues 208–691) (domain or fragment)

Source: publication PMC5460017
